Source: US20210139610A1, “COMPOSITIONS AND METHODS FOR MEDIATING EPS” (priority 2018, published 2021)
Entries after “also recorded” stand apart in the source; their conditions may differ.

Columns and labels:
[1] = test system: Non-typeable Haemophilus influenzae biofilms; assay: NTHI in vitro biofilm formation, additive present from seeding (LIVE/DEAD, CLSM, COMSTAT); format: cell-based; conditions: DNase (Pulmozyme) added at seeding
Protocol: FIG. 14: Non-typeable Haemophilus influenzae biofilms were grown for 40 h in supplemented BHI medium containing additives as indicated below each bar in 8 well chambered coverglass slides at 37° C. and 5% CO2. Biofilms were washed, stained with LIVE/DEAD®, fixed, and imaged by CLSM. Biofilm parameters were quantified using COMSTAT software.
Dicyclohexylamine inhibits spermidine synthase via a competitive inhibition mechanism, i.e. through binding to the same site on the protein as the putrescine substrate. Applicants therefore hypothesized that dicyclohexylamine would inhibit NTHi biofilm development. […]

preformed NTHI biofilms = assay: Disruption of pre-formed NTHI biofilms (treatment after initial growth; LIVE/DEAD, CLSM, COMSTAT); format: cell-based, Non-typeable Haemophilus influenzae; conditions: DNase (Pulmozyme) added at 24 h
Protocol: (FIG. 18A) Biofilm growth was initiated then maintained for 24 hrs then treated for 16 hrs with 0 (SBHI Control), 0.1%, 1%, and 5% (w/v) of Phoshocellulose (P11). (FIG. 18B) Biofilm growth was initiated then maintained for 40 hrs in the presence of 0 (sBHI Control), 0.1%, 1%, and 5% (w/v) of (P11). Biofilms were washed with saline and stained with LIVE/DEAD® stain. Images were analyzed by COMSTAT to calculate average thickness and biomass. All images were captured with a 63× objective.
21:65-7. Pulmozyme® was added either at seeding (biofilm prevention) or to pre-formed biofilms (biofilm disruption) (FIG. 6). The resultant biofilms were stained with LIVE/DEAD® and evaluated using CLSM and COMSTAT analysis.
To determine anti-biofilm activity of cation exchange resins on preformed biofilms (i.e. ability to disrupt an extant biofilm), NTHI growth was initiated and maintained for 24 hrs, then treated for 16 hrs with 0 (sBHI Control), 0.1, 1, or 5% (w/v) of P11 phosphocellulose (FIG. 18A). To determine the anti-biofilm activity of cation exchange resins to prevent biofilm formation, NTHI growth was initiated and maintained in the presence of 0 (sBHI Control), 0.1, 1, and 5% w/v of P11 phosphocellulose (FIG. 18B) or 5% (w/v) heparin sepharose (FIG. 19). Biofilms were washed with saline and stained with LIVE/DEAD®, visualized with confocal scanning microscopy (CSLM) and analyzed by COMSTAT to determine average thickness and biomass.

UPEC biofilms = assay: UPEC in vitro biofilm prevention (at seeding) / disruption (at 24 h); format: cell-based, uropathogenic Escherichia coli (UPEC)
Protocol: FIG. 6: Mature biofilms are resistant to disruption by DNase. DNase (Pulmozyme; 5 units) was added at seeding (prevention) or at 24 h (disruption) to the respective in vitro preformed NTHI and UPEC biofilms. After a total of 40 h, biofilms were stained with LIVE/DEAD®, visualized via CLSM and analyzed by COMSTAT. Bars represent the SEM. Statistical significance compared to control was assessed by unpaired t-tests, *P<0.05; **P<0.01.
FIGS. 35A-35D: DNABII proteins and polyamines (PAs) interact synergistically to induce DNase resistance. […] Biofilms were stained, fixed, visualized via CLSM, and analyzed by COMSTAT. […] Statistical significance compared to Control (No DNase) was assessed by unpaired t-tests, **P<0.01.
FIG. 49: Z-DNA stabilization stimulates biofilm formation. […] Biofilms were stained, fixed, visualized via CLSM, and analyzed by COMSTAT. […] Statistical significance compared to Control (no antibodies) was assessed by paired t-tests, *P<0.05, **P<0.01.
Applicants evaluated the antibiofilm effect of Pulmozyme®, a recombinant human DNase that is used in conjunction with standard therapies for the management of cystic fibrosis (CF) patients to improve pulmonary function. […] The resultant biofilms were stained with LIVE/DEAD® and evaluated using CLSM and COMSTAT analysis.

[2] = test system: Z-DNA and B-DNA in the NTHI biofilm extracellular matrix; assay: Immunofluorescence CLSM for Z-DNA / B-DNA in NTHI biofilms; format: cell-based, Non-typeable Haemophilus influenzae; conditions: DNase (Pulmozyme; 5 units) at 24 h, read at 40 h
Protocol: FIG. 31: DNase degrades B-DNA, but not Z-DNA, within the biofilm extracellular matrix. DNase (Pulmozyme; 5 units) was added at 24 h after biofilm seeding to in vitro pre-formed NTHI biofilms.
FIG. 37: HMGB1 destabilizes Z-DNA structures in the biofilm extracellular matrix. Non-typeable Haemophilus influenzae biofilms were grown in supplemented BHI media in 8 well chambered coverglass slides at 37° C. and 5% CO2. After 24 h, biofilms were treated as indicated above. After 40 h, biofilms were washed, probed with primary antibodies directed against Z-DNA (light gray dots), a fluorescent secondary antibody, stained with DAPI (gray regions), and visualized via fluorescence microscopy.
FIGS. 50A-50B: Equilibrium shift of B-DNA to Z-DNA conversion alters biofilm formation. NTHI biofilms formed for 24 h were incubated with cerium chloride (CeCl3) or chloroquine for an additional 16 h and were probed with naive or anti-Z-DNA (white) by immunofluorescence CLSM.
FIGS. 51A-51B: Equilibrium shift of B-DNA to Z-DNA conversion alters biofilm formation. NTHI biofilms formed for 24 h were incubated with cerium chloride (CeCl3) (FIG. 51A) or chloroquine (FIG. 51B) for an additional 16 h. Z-DNA was measured by IF and CLSM using anti-Z-DNA and cells were stained with the membrane stain FM4-64. Bars represent the SEM. Statistical significance compared to control was assessed by paired t-tests, *P<0.05, **P<0.01.

B1: DNase: Pulmozyme, a recombinant human DNase used for management of cystic fibrosis patients (protein, UniProt P24855 23-282, looked up)
Deoxyribonuclease-1: LKIAAFNIQTFGETKMSNATLVSYIVQILSRYDIALVQEVRDSHLTAVGKLLDNLNQDAPDTYHYVVSEPLGRNSYKERYLFVYRPDQVSAVDSYYYDDGCEPCGNDTFNREPAIVRFFSRFTEVREFAIVPLHAAPGDAVAEIDALYDVYLDVQEKWGLEDVMLMGDFNAGCSYVRPSQWSSIRLWTSPTFQWLIPDSADTTATPTHCAYDRIVVAGMLLRGAVVPDSALPFNFQAAYGLSDQLAQAISDHYPVEVMLK
NTHI biofilm prevention (average thickness, biomass) [1]: significant reduction in average thickness and biomass of NTHI and UPEC biofilms; also recorded: can prevent formation of
NTHI mature biofilm disruption (preformed NTHI biofilms): unable to disrupt mature biofilms; also recorded: not disrupt extant biofilms
UPEC mature biofilm disruption (UPEC biofilms; DNase (Pulmozyme) added at 24 h): unable to disrupt mature biofilms; also recorded: not disrupt extant biofilms
UPEC biofilm prevention (average thickness, biomass) (UPEC biofilms; DNase (Pulmozyme) added at seeding): significant reduction in average thickness and biomass of NTHI and UPEC biofilms; also recorded: can prevent
B-DNA form eDNA in NTHI biofilm matrix [2]: degrades B-DNA form eDNA structures
Z-DNA form eDNA in NTHI biofilm matrix [2]: reveals extensive Z-DNA form eDNA
